We go through 41 sequences from the nanobody polyreactivity screen of Harvey et al. (2022).

The data set in a line: yeast display, Sf9 membrane polyspecificity reagent, FACS + sequencing; frameworks hold sequencing errors. Put shortly: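 Galactose induction of a Saccharomyces cerevisiae BJ5465 synthetic nanobody display library ran 36–48 hours. The cells were then stained for 1 hour at 4 °C with 10% biotinylated, detergent-solubilized Sf9 membrane reagent, pulled down on streptavidin microbeads and FACS-sorted into low and high (top ~1%) gates on expression and reagent-binding fluorescence. Labels for polyreactivity follow the gate of origin.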
On to “QVQLVESGGGLVQAGGSLRLSCAASGYTFIHNAMGWYRQAPGKERELVAAINRSGAITNYADSVKGRFTISRDNAKNTVYLQMNSLKPEDTAVYYCNADVDPLPPRYLHREVLKEYNYWGQGTQVTVSS”, for which the “polyreactivity (PSR sort gate)” value is “low polyreactivity”.

As to “QVQLVESGGGLVQAGGSLRLSCAASGYTFKSYFTGWYRQAPAKERELVAAITSIGGSTYYADSVKGRFTISRDNAKNTVYFLMNSVKPEDTEVYYCAKRRRGYAFSSDYWGPGTQVTVSS”, the “polyreactivity (PSR sort gate)” value is “high polyreactivity”. The value for “QVQLVESGGGLVQAGGSLRLSCAASGYTFKYYAMAWYRQAPGKERELVAAITRSGGGTYYADSVKGRFTISRDNAKNTVYLQMNSLKPEDTAVYYCKAVLSSHGTDAGSYSYDYWGQGTQVTVSS” was “high polyreactivity”; that for “QVQLVESGGGLVQAGGSLRLSCAASGYTFLDYAMAWYRQAPGKERELVAAINSGGSTYYADSVKGRFTISRDNAKNTVYLQMNSLKPEDTAVYYCAREDYVSYRLLYYLFDYWGQGTQVTVSS” was “low polyreactivity”. The same measure for “QVQLVESGGGLVQAGGSLRLSCAASGYTFLRNAMGWYRQAPGKERELVAAISYSGGGTYYPDSVMGRFTISRDHAKNTVYLKMNSLKPEDTAVYYCNVAQRYYGNFFSSRYESWGQGTQVTVSS”: “low polyreactivity”; for “QVQLVESGGGLVQAGGSLRLSCAASGYTFLYYAMGWYRQAPGKERELVAAISSDGTTNYADSVKGRFTISRDNAKNTVYLQMNSLKPQVTAVYYCAADVFNWGYYYWGQGTQVTVSS”: “low polyreactivity”; for “QVQLVESGGGLVQAGGSLRLSCAASGYTFNDYAMGWYRQARGKERELVASISSGGSTYYADSVKGRFTISRDNAKNTVYLQMNSLKPEDTAVYYCAAEWHYIYAYDYWGQGTQVTVSS”: “low polyreactivity”. Consider “QVQLVESGGGLVQAGGSLRLSCAASGYTFNRYAMGWYRQAPGKERELVAAISKRGGSTNYADSVKGRFTISRDNAKNTVYLQMNSLKPEDTAVYYCAKRWRSYSRGGDYWGQGTQVTVSS”, for which the “polyreactivity (PSR sort gate)” value was “high polyreactivity”. As for “QVQLVESGGGLVQAGGSLRLSCAASGYTFNYYAMGWSRQAPGKEREFVASTYADSVKGRFTISRDNAKNTVYLQMNSLKPEDTAVYYCAAEGSYPAYDYWGQGTQVTVSS”, the “polyreactivity (PSR sort gate)” value is reported as “low polyreactivity”. In the case of “QVQLVESGGGLVQAGGSLRLSCAASGYTFNYYAMGWYRQAPGKERELVAAIRSGGSTTYADSVKGRFTISRDNAKNTVYLQMNSLKPEDTAVYYCNADAGYWYRPAYDYWGQGTQVTVSS”, the “polyreactivity (PSR sort gate)” value is given as “low polyreactivity”.

For the sequence “QVQLVESGGGLVQAGGSLRLSCAASGYTFPLYAMGWYRQAPGKERELVADINIGGASTYYADSVKGRFTISRDNAKNTFYLQMKSLKPEDTAVYYCAKEYFDGFFPTFYYDYWGQGTQVTVSS”, the “polyreactivity (PSR sort gate)” value was “low polyreactivity”. Regarding “QVQLVESGGGLVQAGGSLRLSCAASGYTFPLYAMGWYRQAPGKERELVADINIGGASTYYADSVKGRFTISRDNAKNTVYLQMNSLKPEDTAVYYCAADSRKRQGYGYWGQGTQVTVSS”, the “polyreactivity (PSR sort gate)” value is given as “low polyreactivity”. Regarding “QVQLVESGGGLVQAGGSLRLSCAASGYTFPRYAMGWYRQAPGKERELVAAISRRGGSTYYADSVKGRFTISRDNAKNTVYLQMNSLKPEDTAVYYCAAATRQGYYSGSTRYDYWGQGTQVTVSS”, the “polyreactivity (PSR sort gate)” value was “high polyreactivity”. The value for “QVQLVESGGGLVQAGGSLRLSCAASGYTFPRYTMGWYRQAPGKERELVAAINWSGGSTYYADSVKGRFTISRDNAKNTVYLQMNSLKPEDTAVYYCAAPVFHLYTDRMGYWGQGTQVTVSS” was “high polyreactivity”. The same measure for “QVQLVESGGGLVQAGGSLRLSCAASGYTFPTNAMGWYRQAPGKERELVAAISIDDGITYYADSVKGRFTISRDNAKNTVYLQMNSLKPEDTAVYYCSAEVGIEYEYWGQGTQVTVSS”: “high polyreactivity”; for “QVQLVESGGGLVQAGGSLRLSCAASGYTFPYYTMGWYRQAPGKERELVAAISSGGRTKYADSVKGRFTISRDNANNSVYVQMNSLKPEDTAVYYCSARSSYSFAFFWPAYNYWGQGTQVTVSS”: “high polyreactivity”. As for “QVQLVESGGGLVQAGGSLRLSCAASGYTFQSYAMAWYRQAPWKERELVAAIRYSGGSTYADSVKGRFTISRDNAKNTVYLQMNSLKPEDTAVYYCAARSNSLLFDYWGQGTQVTVSS”, the “polyreactivity (PSR sort gate)” value is on record as “low polyreactivity”. “QVQLVESGGGLVQAGGSLRLSCAASGYTFRAYAMGWYRPAPGKERELVAAISRRGGSTYYADSVKGRFTISRDNAKNTVYLQMNSLKPEDTAVYYCAADFRSEHAEDYWGQGTQVTVSS”: the “polyreactivity (PSR sort gate)” value was “high polyreactivity”. The same measure for “QVQLVESGGGLVQAGGSLRLSCAASGYTFRLYAMGWYRQAPVKERELVAAINTSGGRTYYADSVKGRFTISRDNAKNTVYLQMNSLKPEDTAVYYCATDWYWKRADIRPGDYWGQGTQVTVSS”: “low polyreactivity”. Regarding “QVQLVESGGGLVQAGGSLRLSCAASGYTFRNYAMGWYRQAPGKERELVAAISTRGVSTYYADSVKGRFTISRDNAKNTVYLQMNSLKPEDTADYYCAAAGGRYSRAAYDYWGQGTQVTVSS”, the “polyreactivity (PSR sort gate)” value is listed as “low polyreactivity”. Take “QVQLVESGGGLVQAGGSLRLSCAASGYTFRQYAMGWYRQAPGKERELVAAIRYSGASTYYADSVKGRFTISRDNAKNTVYLQINSLKPEDTAVYYWNAALRLWGEYIYDYWGQGTQVTVSS”: the “polyreactivity (PSR sort gate)” value is recorded as “low polyreactivity”. On to “QVQLVESGGGLVQAGGSLRLSCAASGYTFRSNTMGWYRQAPGKERELVAAISGRGSSTYYADSVKGRFTISRDNAKNTVYLQMNSLKPEDTAVYYWNAPYNRATYNYWGQGTQVNVSS”, for which the “polyreactivity (PSR sort gate)” value is given as “high polyreactivity”. For the sequence “QVQLVESGGGLVQAGGSLRLSCAASGYTFRSNTMGWYRQAPGKERELVASINQSGGRTYYADSVKGRFTISRDNAKNTVYFQMNSLKPEDTAVYYCATRGYNYYAHNYWGQGTQVTVSS”, the “polyreactivity (PSR sort gate)” value is reported as “high polyreactivity”. The same measure for “QVQLVESGGGLVQAGGSLRLSCAASGYTFRSYMGWYRQAPGKEREFVADISTSVTNTYYADSVKGRFTISRDNAKNTVYLQMNSLKPEDTAVYYCAAGVQSVYNGEPGIILEFDYWGQGTQVTVSS”: “low polyreactivity”; for “QVQLVESGGGLVQAGGSLRLSCAASGYTFRTNVMGWYRQAPGKERELVATINWRGGSTYYADSVKGRFTISRDNAKNTVYLQMNSLKPEDTAVYYCAKTYRYYRTMDYWGQGTQVTVSS”: “low polyreactivity”; for “QVQLVESGGGLVQAGGSLRLSCAASGYTFRWYVMGWYRPAPGKERELVAAISQSGGDTYYADSVKGRFTISRDNAKNTVYLQMNSLKPEDTAVYYCAVGRVGRFYYWGQGTQVTVSS”: “high polyreactivity”. Turning to “QVQLVESGGGLVQAGGSLRLSCAASGYTFRYNALGWYRQAPGKERELVAAISYSRGSTYYADSVKGRFTISRDYAKYTVYLLMNSLKPEDTAVYYCAAQYLFSGHDYWGQGTQVTVSS”, the “polyreactivity (PSR sort gate)” value is “low polyreactivity”. As to “QVQLVESGGGLVQAGGSLRLSCAASGYTFRYNTMGWYRQAPGKERELVADISSGVGNTYYADSVKGRFTISRDNAKNTVYLQMNSLKPEDTAVYYCNADYKSSYYWYLWYNYWGHGTQVTVSS”, the “polyreactivity (PSR sort gate)” value was “low polyreactivity”. The value for “QVQLVESGGGLVQAGGSLRLSCAASGYTFRYYAMGSYRQAPGKERELVAAITWSGGSTYYADSVKGRFTISRDNAKNTVYLQMNSLKPEDTAVYFCATDSARVGNFPYPQFDYWGQGTQVTVSS” was “low polyreactivity”; that for “QVQLVESGGGLVQAGGSLRLSCAASGYTFRYYAMGWYRQAPGKERELVAAINWSGGSTYYADSVKGRFTISRDNAKNTVYLQNNSLKPEDTAVYYCAADPDGDLDIDYDYWGLGTQVTVSS” was “low polyreactivity”.

For “QVQLVESGGGLVQAGGSLRLSCAASGYTFRYYAMGWYRQAPGKERELVAVISSGGSTKYADSVKGRFTISRDNAKNTVYLQMNSLKPEDTAVYYCAARYRSLYNYWGQGTQVTVSS”, the “polyreactivity (PSR sort gate)” value is listed as “high polyreactivity”. Turning to “QVQLVESGGGLVQAGGSLRLSCAASGYTFSAYAMGCYRQAPGKERELVASITRRRTNYAESVKGRFTISRDNAKNTVYLQMNSLKPEDTAVYYCAATNYVRQYATYDYWGQGTQVTVSS”, the “polyreactivity (PSR sort gate)” value is “high polyreactivity”. Regarding “QVQLVESGGGLVQAGGSLRLSCAASGYTFSFYAMGWYRQAPGKERELVATISWRGGSTYYADSVKGRFTISRDNAKNTVYLQMNSLKPEDTAVYYCNIVDKTGSKMDYWGQGTQVTVSS”, the “polyreactivity (PSR sort gate)” value is listed as “high polyreactivity”. Regarding “QVQLVESGGGLVQAGGSLRLSCAASGYTFSRYAMGWYRQAPGKERELVAAISSRGGSTYYADSVKGRFTISRDNAKNTVYLQMNSLKPADTAVYYCAADYGVGYGIVGSYYWGQGTQVTVSS”, the “polyreactivity (PSR sort gate)” value is on record as “high polyreactivity”. The same measure for “QVQLVESGGGLVQAGGSLRLSCAASGYTFSSNVMGWYRQAPGKERELVAAISANGARTYYADSVKGRFTISRDNAKNTVYLQMNSLKPEDTAVYYCAADYRWAGRYYYWGQGTQVTVSS”: “high polyreactivity”; for “QVQLVESGGGLVQAGGSLRLSCAASGYTFSSYAMGWYRQAPGKERELVAAITIGGGTNYADSVKGRFTISRDNAKNTVYLQMNSLKPEDTAVYYCNRDVALLEHPVPKKEFGYWGQGTQVTVSS”: “low polyreactivity”; for “QVQLVESGGGLVQAGGSLRLSCAASGYTFSYYAMGWYRQAPGKERELVAAINYSGGRTYYADSVKGRFTISRDNAKHTVYLQMNSLKPEDSAVDYCAARGGFGMDYWGQGTQVTVSS”: “high polyreactivity”.

“QVQLVESGGGLVQAGGSLRLSCAASGYTFTAYAMGWYRQAPGKERELVAAISKGGGSTYYADSVKGRFTISRDNAKNTVYLQMNSLKPEDTAVYYCAADTYQGVKYYYWGQGTQVTVSS”: the “polyreactivity (PSR sort gate)” value is listed as “high polyreactivity”.

With “QVQLVESGGGLVQAGGSLRLSCAASGYTFTIYALGWYRQAPGKEMELVASISIDGSTYYADSVKGRFTISRDNAKNTVYLQMNSLKPEDTAVYYCAADYYYYTPGFDYWGQGTQVTVSS”, the “polyreactivity (PSR sort gate)” value was “low polyreactivity”. For “QVQLVESGGGLVQAGGSLRLSCAASGYTFTRYAMGWYRQAPGKEREFVAAITSGGGSTYYADSVKGRFTISRDNAKNTVYLQMNSLKPEDTAVYYCAATRLVSYHYPDLDSQQGGYWGQGTQVTVSS”, the “polyreactivity (PSR sort gate)” value is “low polyreactivity”. For the sequence “QVQLVESGGGLVQAGGSLRLSCAASGYTFVGYAMGWYRQAPGKERELVASISTGDSTYYADSVKGRFTISRDNAKNTVYLQMNSLKPEDTAVYYCAADSWYFRGMDYWGQGTQVTVSS”, the “polyreactivity (PSR sort gate)” value was “low polyreactivity”.
